The values that follow come from US7223556 (Harvard, dated 2007).

A value given as a limit tells only on which side of the number the result lay.

Assay [1] deals with Skp1p (Saccharomyces cerevisiae) (UniProt P52286). Put plainly: cell-based or functional assay.
Assay [2] addresses EE-tagged HPV16-E2 (human papillomavirus type 16) (UniProt P03120). Briefly: cell-based or functional assay.
The target in assay [3] is retinoblastoma tumor suppressor protein (pRB) (UniProt P06400). Briefly: cell-based or functional assay.
Assay [4] deals with T1, retinoblastoma tumor suppressor protein (pRB) (UniProt P06400 1-928).
T1 construct: For the co-immunoprecipitation it was translated in vitro and 35S-labelled; In yeast Y81 cells it was expressed from plasmid p2202TRB
T1 sequence: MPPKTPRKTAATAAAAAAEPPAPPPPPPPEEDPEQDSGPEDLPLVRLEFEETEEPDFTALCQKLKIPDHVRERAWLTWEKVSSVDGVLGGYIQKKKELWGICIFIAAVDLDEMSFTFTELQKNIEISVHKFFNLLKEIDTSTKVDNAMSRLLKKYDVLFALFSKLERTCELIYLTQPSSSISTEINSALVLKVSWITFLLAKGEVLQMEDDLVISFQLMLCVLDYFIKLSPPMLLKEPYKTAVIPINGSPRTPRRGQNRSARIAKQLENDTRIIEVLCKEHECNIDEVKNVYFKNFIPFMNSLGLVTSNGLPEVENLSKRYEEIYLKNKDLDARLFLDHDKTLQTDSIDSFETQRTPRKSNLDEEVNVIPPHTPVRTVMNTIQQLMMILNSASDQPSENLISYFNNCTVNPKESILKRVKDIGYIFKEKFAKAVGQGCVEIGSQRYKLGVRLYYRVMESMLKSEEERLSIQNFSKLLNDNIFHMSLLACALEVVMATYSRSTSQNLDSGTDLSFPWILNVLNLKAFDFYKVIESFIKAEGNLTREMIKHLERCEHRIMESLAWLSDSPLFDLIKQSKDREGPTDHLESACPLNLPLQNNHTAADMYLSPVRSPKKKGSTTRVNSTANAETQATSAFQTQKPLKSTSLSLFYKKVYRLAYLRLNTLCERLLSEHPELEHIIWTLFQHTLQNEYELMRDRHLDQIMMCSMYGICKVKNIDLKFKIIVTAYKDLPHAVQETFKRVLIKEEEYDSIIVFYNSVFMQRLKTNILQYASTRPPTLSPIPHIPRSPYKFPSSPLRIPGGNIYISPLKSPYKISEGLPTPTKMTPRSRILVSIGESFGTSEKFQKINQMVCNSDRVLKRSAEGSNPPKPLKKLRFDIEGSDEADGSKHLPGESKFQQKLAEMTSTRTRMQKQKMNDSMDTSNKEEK
Briefly: co-immunoprecipitation of in vitro translated 35S-labelled proteins with anti-Flag M2 antibody, SDS PAGE.

Sequence of Skp1p (Saccharomyces cerevisiae) (P52286 whole entry): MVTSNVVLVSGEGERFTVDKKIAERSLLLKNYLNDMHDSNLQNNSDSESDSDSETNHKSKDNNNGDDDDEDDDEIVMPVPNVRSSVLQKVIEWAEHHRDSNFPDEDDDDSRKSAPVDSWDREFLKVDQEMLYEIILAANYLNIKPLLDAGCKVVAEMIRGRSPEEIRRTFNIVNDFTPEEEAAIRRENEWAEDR
Sequence of EE-tagged HPV16-E2 (human papillomavirus type 16) (P03120 whole entry): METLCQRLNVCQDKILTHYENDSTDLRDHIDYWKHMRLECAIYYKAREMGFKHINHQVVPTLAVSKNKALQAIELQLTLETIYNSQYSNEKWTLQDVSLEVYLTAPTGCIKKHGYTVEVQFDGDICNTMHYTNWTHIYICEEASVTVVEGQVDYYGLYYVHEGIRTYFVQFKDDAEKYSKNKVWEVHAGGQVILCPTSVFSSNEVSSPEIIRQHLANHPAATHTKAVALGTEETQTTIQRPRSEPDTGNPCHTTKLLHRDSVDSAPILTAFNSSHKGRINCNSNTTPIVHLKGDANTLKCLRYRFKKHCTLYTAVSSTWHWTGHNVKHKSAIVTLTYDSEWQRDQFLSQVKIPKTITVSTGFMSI

In assay [1], “Cdc4p^F/WD-βgal (from UniProt P00722 10-1024)” displayed a half life of the βgal fusion after promoter shut-off in KY130 cells of 35 min. Turning to “Cdc4p(G300D) (from UniProt P07834 1-779)”, in assay [1], the half life of the mutant Cdc4p protein after promoter shut-off in KY130 cells was over 60 min. As for “Cdc4p^F/WD-E1C (from UniProt P03114 424-649)”, in assay [2], the half life of EE-E2 after promoter shut-off in INVSc1 yeast cells was 16 min.

Molecule Cdc4p(ΔF) had a half life of the mutant Cdc4p protein after promoter shut-off in KY130 cells in assay [1] of over 60 min. On to “Cdc4p^F/WD-E7N (from UniProt P03129 2-35)”, for which, in assay [3], the half life of pRB after promoter shut-off in Y81 yeast cells was determined as 70 minutes.

B1: Flag-tagged βTrCP (other)
chain: MDPAEAVLQEKALKFMNSSEREDCNNGEPPRKIIPEKNSLRQTYNSCARLCLNQETVCLASTAMKTENCVAKTKLANGTSSMIVPKQRKLSASYEKEKELCVKYFEQWSESDQVEFVEHLISQMCHYQHGHINSYLKPMLQRDFITALPARGLDHIAENILSYLDAKSLCAAELVCKEWYRVTSDGMLWKKLIERMVRTDSLWRGLAERRGWGQYLFKNKPPDGNAPPNSFYRALYPKIIQDIETIESNWRCGRHSLQRIHCRSETSKGVYCLQYDDQKIVSGLRDNTIKIWDKNTLECKRILTGHTGSVLCLQYDERVIITGSSDSTVRVWDVNTGEMLNTLIHHCEAVLHLRFNNGMMVTCSKDRSIAVWDMASPTDITLRRVLVGHRAAVNVVDFDDKYIVSASGDRTIKVWNTSTCEFVRTLNGHKRGIACLQYRDRLVVSGSSDNTIRLWDIECGACLRVLEGHEELVRCIRFDNKRIVSGAYDGKIKVWDLVAALDPRAPAGTLCLRTLVEHSGRVFRLQFDEFQIVSSSHDDTILIWDFLNDPAAQAEPPRSPSRTYTYISR
notes: Untagged βTrCP in lane 1 is the control for the anti-Flag immunoprecipitation; also called F-βTrCP; F-TrCP
Take B1: in assay [4], the binding result is “no binding”.
